Results as given in patent US8623997B2, “Variant Hhip1 protein and methods and uses thereof” (Curis, Inc., priority 2008, dated 2014).

Legend:
[1] = tested on: Ptch1; experiment: FACS assay of Shh649 binding to Ptch1 expressing 293 cells and its competition; design: species or system human
Procedure: Shh649 (1 nM) preincubated with indicated proteins was bound to Ptch1 expressing cells, washed and analyzed by FACS. The average mean Shh649 fluorescence intensity (MFI) of two independent dilution series was plotted versus inhibitor concentration, with error bars denoting standard deviations. […] Assays were carried out using octylated Ihh wildtype and T154I proteins. Concentration dependent relative luciferase units (RLU) are plotted as the average of four independent dilution series±standard deviation and normalized to the maximal Ihh WT stimulation on each plate as 100%. […] The data is representative of three independent experiments.
Shh is in the same orientation as in the Hhip-Shh complex in Panel A. Zn^2+ and Ca^2+ cations are shown. […] Surface representation of Shh with residues within 4.5 Å of Hhip (shaded gray) and Cdon (hatched areas). Area within dotted boarder indicates the boundaries of the Cdon footprint, which overlaps the Hhip binding surface. […] Shh histidine residues are shown as sticks with nitrogen atoms shaded dark. The Hhip L2 loop is shown in transparent surface and Zn^2+ cation is shown. Histidine 35 is not shown since the ordered portion of the Shh structure begins at L40. […] The spectral region of the histidine side chains is shown. […] The average mean Shh649 fluorescence intensity (MFI) of two independent dilution series was plotted versus protein concentration, with error bars denoting standard deviations. Ctrl refers to the His-6 (SEQ ID NO: 87) tagged HGF β protein. […] Shh649 (0.33 nM) was preincubated with 56 nM (170-fold excess) of Hhipβ12 wildtype or L2 mutant proteins, 5E1 or controls then bound to Ptch1 cells (black) or 293 cells (gray), washed and analyzed by FACS. Shh649 binding to Ptch1 cells in the absence of inhibitors was normalized to 100% and the data expressed as a percentage of this signal (average of two independent duplicates with standard deviations). Ctrl and CtrlFc refer to HGF β and the IgG1 isotype control Trastuzumab, respectively. The data is representative of at least three independent experiments.
(§1) Shh649, conjugated to Dylight 649 (Pierce) at its C-terminus (vide supra), was incubated at 0.33 or 1 nM for 1 h on ice with various Hhip or control proteins prior to incubation with HEK-293 cells (293) or 293 cells expressing full length human Patched-1 (Ptch1-293 clone 10) (Carpenter D. et al. (1998) Proc. Natl. Acad. Sci. USA 95:13630-13634) in FACS buffer (3% FBS in PBS) for 1 h on ice. After washing 3 times in FACS buffer, live cells (sorted by propidium iodide exclusion) were analyzed by flow cytometry in the APC channel using a FACSCalibur (BD Biosciences). Control proteins included His6-Shh, His6-Ihh, HGF β-His639, Trastuzumab (Genentech, Inc.) as a human IgG1 isotype control for Hhip1β12-Fc, and mIgG1 (Molecular Probes Z25105) as a murine Mab control for anti-Shh 5E1 Mab34.

[2] = tested on: Shh signaling; experiment: Gli-luciferase co-culture signaling assay (S12 fibroblasts overlaid with Shh-producing HT29 cells); assay type: cell-based, murine S12 fibroblasts / human HT29 cells; conditions: for IC50: 24 hrs, read-out: IC50 inhibition of Shh signaling
Text: Due to the lack of both N- and C-terminal lipid modifications of Shh and the absence of other cellular components, the in vitro assays may not fully recapitulate Hip-Shh interactions occurring in a cellular environment. Therefore, a co-culture assay consisting of murine S12 fibroblasts stably transfected with a Gli luciferase reporter gene and (Frank-Kamenetsky et al. (2002) J. Biol. 1:10) and human colorectal adenocarcinoma HT29 cells that secrete fully lipid-modified Shh (Yauch et al. (2008) Nature 455:406) was used to determine which extracellular domains of Hhip1β12 mediate inhibition of Shh signaling in mammalian cells.
Briefly, S12 cells, which are 10T1/2 fibroblasts stably transfected with 8× Gli-binding sites fused to a luciferase reporter (Frank-Kamenetsky et al. (2002) J. Biol. 1:10), were plated at 10,000 cells/well of a white-walled clear bottomed 96-well plate (Costar 3610) for […] in regular growth medium (HG-DMEM, 10% FBS, 1% glutamine). After 24 h, the media was removed and Shh-producing HT29 cells at 20,000 cells/well were plated and the co-culture was grown in regular media. After 24 h, the media was changed to 0.5% serum HG-DMEM±Hhip1β12 fragments and further incubated for 24 hrs to stimulate signaling. Gli-luciferase activity was measured using a HTS-Steady Lite luciferase detection kit (Perkin Elmer); multiple assays were carried out, each in triplicate. Data were fit to a 4-parameter sigmoidal equation, from which the IC50 was derived using Kaleidagraph (Synergy Software).

[3] = molecular target: T1, biotinylated-ShhN-Cys (Homo sapiens, UniProt Q15465); experiment: Bio-layer interferometry (Octet) binding kinetics of Hhip1β12 variants to Shh
T1 construct: ShhN-Cys (residues 24-197); His6 (N); made in house; host or cells: E. coli Rosetta 2
Procedure: The binding kinetics of the Hhip1β12 fragments as well as Hhip1β12 mutants were measured by bio-layer interferometry in the presence or absence of 10 mM EDTA on an Octet (Fortébio). Streptavidin high binding FA biosensors were loaded with biotinylated-ShhN-Cys in kinetic buffer (Fortébio). The loaded biosensors were washed and transferred to wells containing Hhip1β12 protein at concentrations of 1.2, 1.0, 0.8 and 0.6 μM in kinetic buffer. Hhip1β12 association and dissociation was measured for 30 and 20 min, respectively. Kinetic parameters (kon and koff) and affinities (KD) were calculated from a non-linear fit of the data based on a 1:1 binding model between Hhip1β12 and Shh using the Octet software. Multiple independent measurements were performed.
In order to assess the contribution of residues in the Hhip1 L1, L2 and L3 loops for binding to Shh, a series of single alanine Hipβ12 mutants were made using the QuickChange DNA mutagenesis kit (Stratagene) using the manufacturer's protocol, and their affinity for Shh was measured by bio-layer interferometry (as described in Example 2B). These mutations included Hhip1β12 mutants 1312A, E381A, M382A, D383A, D378A, T418A, Q420A, E380A, D387A and ΔL2.

[4] = molecular target: T2, Shh649 binding to Hhip1β12 on 293 cells (Homo sapiens, UniProt Q15465); experiment: FACS: Ptch1-independent recruitment of Shh649 to 293 cells by Hhip1β12; conditions: 520 nM
T2 construct: made in house; host or cells: Shh649: E. coli Rosetta 2; Hhip1β12: Tni insect cells; both added to HEK-293 cells
Text: The critical residue for 5E1 binding, S177 shown marked with an asterisk (*), resides in the area of Shh that interacts with both Hhip and Ptch1. Numbering refers to human Shh (Fuse, N. et al. (1999) Proc. Natl. Acad. Sci. USA 96:10992-10999; Pepinsky R. B. et al. (2000) J. Biol. Chem. 275:10995-11001). […] Black bars show binding to Ptch1 cells for comparison. Data are the average mean fluorescence intensity and SDs of two independent (duplicate and triplicate) experiments normalized to Shh649 binding to Ptch1 cells in the absence of other proteins (“Ctrl”) in the same way as FIG. 15J. Shh649 and Hhip1β12 are present at 45- and 10-fold higher concentrations respectively than in FIG. 15J in order to detect the Ptch1-independent binding of Shh649 to Hhip1β12.
as §1, with “Control proteins included His6-Shh, His6-Ihh, HGF β-His639, Trastuzumab (Genentech, Inc.) as a human IgG1 isotype control for Hhip1β12-Fc, and mIgG1 (Molecular Probes Z25105) as a murine Mab control for anti-Shh 5E1 Mab34.” left out

[5] = 1:1 binding model, n.d stands for no binding detected

| Shh binding of Hhip1β12 mutants (in words) ([3]; bio-layer interferometry, compared with WT Hhip1β12) | binding to 293 cells at high concentrations [4] | Kd [3, 5] [nM] | koff × 10^−4 [3, 5] | kon × 10^3 [3, 5] | Molecule | competition of Shh649 binding to Ptch1 cells (in words) [1] | IC50 fold change versus wildtype Hipβ12 ([2]; Gli-luciferase co-culture) [fold] | IC50 ([2]; Gli-luciferase co-culture) [nM] | maximal inhibition ([2]; at saturating conditions) [%] |
| --- | --- | --- | --- | --- | --- | --- | --- | --- | --- |
| inability | – | – | – | – | D383R: Hhip L2 mutant of Hhip1β12 with D383 changed to R (protein) MLKMLSFKLLLLAVALGFFEGDAKFGERNEGSGARRRRCLNGNPPKRLKRRDRRMMSQLELLSGGEMLCGGFYPRLSCCLRSDSPGLGRLENKIFSVTNNTECGKLLEEIKCALCSPHSQSLFHSPEREVLERDLVLPLLCKDYCKEFFYTCRGHIPGFLQTTADEFCFYYARKDGGLCFPDFPRKQVRGPASNYLDQMEEYDKVEEISRKHKHNCFCIQEVVSGLRQPVGALHSGDGSQRLFILEKEGYVKILTPEGEIFKEPYLDIHKLVQSGIKGGDERGLLSLAFHPNYKKNGKLYVSYTTNQERWAIGPHDHILRVVEYTVSRKNPHQVDLRTARVFLEVAELHRKHLGGQLLFGPDGFLYIILGDGMITLDDMEEMRGLSDFTGSVLRLDVDTDMCNVPYSIPRSNPHFNSTNQPPEVFAHGLHDPGRCAVDRHPTDININLTILCSDSNGKNRSSARILQIIKGKDYESEPSLLEFKPFSNGPLVGGFVYRGCQSERLYGSYVFGDRNGNFLTLQQSPVTKQWQEKPLCLGTSGSCRGYFSGHILGFGEDELGEVYILSSSKSMTQTHNGKLYKIVDPKRPLMPEECRATVQPAQTLTSECSRLCRNGYCTPTGKCCCSPGWEGDFCRTAKCEPACRHGGVCVRPNKCLCKKGYLGPQCEQVDRNIRRVTRAGILDQIIDMTSYLLDLTSYIV | no inhibition | ~13 | 57 | ~50 |
| – | bind nonspecifically to 293 cells | 220 | 9.4 × 10^−4 [s^−1] | 4.3 × 10^3 [M^−1 × s^−1] | Hhip1β12: β-propeller-EGF1-EGF2 construct (SEQ ID NO:12), residues 193-667 of SEQ ID NO:2, lacking putative Fz domain (protein, listed as Homo sapiens) SNYLDQMEEYDKVEEISRKHKHNCFCIQEVVSGLRQPVGALHSGDGSQRLFILEKEGYVKILTPEGEIFKEPYLDIHKLVQSGIKGGDERGLLSLAFHPNYKKNGKLYVSYTTNQERWAIGPHDHILRVVEYTVSRKNPHQVDLRTARVFLEVAELHRKHLGGQLLFGPDGFLYIILGDGMITLDDMEEMDGLSDFTGSVLRLDVDTDMCNVPYSIPRSNPHFNSTNQPPEVFAHGLHDPGRCAVDRHPTDININLTILCSDSNGKNRSSARILQIIKGKDYESEPSLLEFKPFSNGPLVGGFVYRGCQSERLYGSYVFGDRNGNFLTLQQSPVTKQWQEKPLCLGTSGSCRGYFSGHILGFGEDELGEVYILSSSKSMTQTHNGKLYKIVDPKRPLMPEECRATVQPAQTLTSECSRLCRNGYCTPTGKCCCSPGWEGDFCRTAKCEPACRHGGVCVRPNKCLCKKGYLGPQCE | inhibit Ptch1-specific Shh cell binding in a dose-dependent manner | – | 5 | – |
| – | bind nonspecifically to 293 cells | – | – | – | Hhip1β12-Fc: Fc-tagged Hhip1β12 (protein, left off: a dimerising Fc or GST) SNYLDQMEEYDKVEEISRKHKHNCFCIQEVVSGLRQPVGALHSGDGSQRLFILEKEGYVKILTPEGEIFKEPYLDIHKLVQSGIKGGDERGLLSLAFHPNYKKNGKLYVSYTTNQERWAIGPHDHILRVVEYTVSRKNPHQVDLRTARVFLEVAELHRKHLGGQLLFGPDGFLYIILGDGMITLDDMEEMDGLSDFTGSVLRLDVDTDMCNVPYSIPRSNPHFNSTNQPPEVFAHGLHDPGRCAVDRHPTDININLTILCSDSNGKNRSSARILQIIKGKDYESEPSLLEFKPFSNGPLVGGFVYRGCQSERLYGSYVFGDRNGNFLTLQQSPVTKQWQEKPLCLGTSGSCRGYFSGHILGFGEDELGEVYILSSSKSMTQTHNGKLYKIVDPKRPLMPEECRATVQPAQTLTSECSRLCRNGYCTPTGKCCCSPGWEGDFCRTAKCEPACRHGGVCVRPNKCLCKKGYLGPQCE | inhibit Ptch1-specific Shh cell binding in a dose-dependent manner | – | – | – |
